For assay [1], the target named is human CD4 (human, UniProt P01730 26-390, limits assumed). Kind of assay: ELISA, plates coated with human CD4, goat anti-human IgG Fc-HRP. On the procedure:
Cross-reactivity to human CD4 was measured by ELISA. Plates were coated with human CD4 at 1 μg/ml overnight at 4° C. After blocking and washing, 1 μg/ml of LAG-3 antibodies were added to the plates and incubated at room temperature for 1 h. The plates were then washed and subsequently incubated with goat-anti human IgG Fc-HRP for 45 min. After washing, TMB substrate was added and the color reaction was stopped by 2M HCl. The absorbance at 450 nm was read using a microplate reader.

The target in assay [2] is T1, mFc-tagged mouse LAG-3 (mouse, UniProt Q61790 24-442).
T1 construct: extracellular domain; also called mFc-tagged mouse protein
T1 sequence (looked up): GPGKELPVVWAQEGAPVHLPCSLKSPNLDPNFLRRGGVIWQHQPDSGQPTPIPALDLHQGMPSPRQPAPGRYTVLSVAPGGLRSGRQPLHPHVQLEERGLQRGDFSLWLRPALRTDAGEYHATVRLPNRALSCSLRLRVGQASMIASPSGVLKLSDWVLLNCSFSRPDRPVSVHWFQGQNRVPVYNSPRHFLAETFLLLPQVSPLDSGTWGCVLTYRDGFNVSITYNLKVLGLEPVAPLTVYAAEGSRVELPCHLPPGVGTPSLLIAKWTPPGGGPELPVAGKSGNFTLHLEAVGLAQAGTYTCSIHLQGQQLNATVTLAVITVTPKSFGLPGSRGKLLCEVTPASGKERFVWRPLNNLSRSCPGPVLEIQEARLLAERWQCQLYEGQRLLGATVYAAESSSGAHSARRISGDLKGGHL
Kind of assay: FACS competition; blocks mFc-mouse LAG-3 binding to MHC-II on A20 cells.

The target in assay [3] is T2, mouse Fc (mFc)-tagged human LAG-3 (human, UniProt P18627 23-450).
T2 construct: extracellular domain
T2 sequence (looked up): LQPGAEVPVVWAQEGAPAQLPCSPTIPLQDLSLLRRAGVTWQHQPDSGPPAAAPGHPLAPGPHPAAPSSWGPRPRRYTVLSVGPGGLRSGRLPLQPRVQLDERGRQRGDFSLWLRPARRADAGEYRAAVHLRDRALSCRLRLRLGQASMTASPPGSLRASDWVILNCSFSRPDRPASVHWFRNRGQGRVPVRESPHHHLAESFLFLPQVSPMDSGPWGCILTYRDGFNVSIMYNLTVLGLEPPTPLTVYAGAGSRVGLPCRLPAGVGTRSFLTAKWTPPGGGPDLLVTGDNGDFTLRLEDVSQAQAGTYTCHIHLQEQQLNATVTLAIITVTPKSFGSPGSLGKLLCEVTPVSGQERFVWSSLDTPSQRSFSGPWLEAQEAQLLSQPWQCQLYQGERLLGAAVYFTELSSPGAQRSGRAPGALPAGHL
Kind of assay: ELISA blocking: antibody pre-mixed with mFc-tagged human LAG-3, added to plates coated with human Galectin-3 (blocked ligand); detection goat anti-mouse IgG Fc-HRP. On the procedure:
96-well plates were coated with human LSECtin or Galectin-3 at 0.5 μg/ml overnight at 4° C., respectively. […] After blocking and washing, the mixture was transferred to the plates and incubated at room temperature for 1 h. The plates were then washed and subsequently incubated with the secondary antibody goat-anti Mouse IgG Fc-HRP for 1 h. After washing, TMB substrate was added and the color reaction was stopped by 2M HCl. The absorbance at 450 nm was read using a microplate reader.
(In general: An ELISA detects its analyte on a solid surface through an enzyme-linked reagent.)

The target of assay [4] is T3, human LAG-3 on transfected cells (human, UniProt P18627 23-525).
T3 construct: whole, on cells; Flp-In-293 or CHO-K1 cells transfected with full length human LAG-3; also called cell surface human LAG-3
T3 sequence (looked up): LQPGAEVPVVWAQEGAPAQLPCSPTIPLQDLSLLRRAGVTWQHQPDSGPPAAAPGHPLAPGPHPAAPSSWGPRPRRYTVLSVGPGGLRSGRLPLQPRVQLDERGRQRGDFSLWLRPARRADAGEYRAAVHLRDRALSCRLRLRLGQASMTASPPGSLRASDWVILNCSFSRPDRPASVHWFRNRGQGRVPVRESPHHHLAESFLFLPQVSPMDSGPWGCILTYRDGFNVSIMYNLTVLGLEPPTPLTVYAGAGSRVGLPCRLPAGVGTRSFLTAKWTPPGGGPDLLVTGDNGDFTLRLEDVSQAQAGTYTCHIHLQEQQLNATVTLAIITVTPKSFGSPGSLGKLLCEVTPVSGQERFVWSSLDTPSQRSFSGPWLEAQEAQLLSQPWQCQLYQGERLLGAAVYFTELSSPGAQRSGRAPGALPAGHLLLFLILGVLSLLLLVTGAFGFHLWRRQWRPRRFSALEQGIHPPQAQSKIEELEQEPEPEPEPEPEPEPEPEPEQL
Kind of assay: FACS affinity on transfected cells.

Assay [5] addresses T4, human LAG-3 protein (SPR analyte) (human, UniProt P18627 23-450).
T4 construct: extracellular domain
T4 sequence (looked up): T2 sequence (looked up)
In words: SPR Biacore 8K, Ab captured on anti-human Fc, LAG-3 as analyte. In general terms: Surface plasmon resonance follows binding to a sensor surface in real time, without labels.

In assay [6] the target is T5, mouse LAG-3 protein (SPR analyte) (mouse, UniProt Q61790 24-442).
T5 construct: extracellular domain
T5 sequence (looked up): T1 sequence (looked up)
Described as above.

For assay [7], the target named is T6, cynomolgus LAG-3 on transfected cells (cynomolgus monkey).
T6 construct: whole, on cells; 293F cells transfected with cynomolgus LAG-3; also called cell surface cynomolgus LAG-3; monkey LAG-3
In words: FACS, serial dilutions on cynomolgus LAG-3 transfected cells, PE-labeled secondary antibody. The protocol:
(§1) Similarly, cross-reactivity to cynomolgus or murine LAG-3 was tested by FACS with cyno or murine LAG-3 transfected cell lines.

Assay [8] deals with T2, mouse Fc (mFc)-tagged human LAG-3. Kind of assay: FACS blocking: antibody pre-mixed with mFc-tagged human LAG-3, added to Raji cells; blocked ligand: human MHC-II on Raji cells; detection goat anti-mouse IgG Fc-PE. The protocol: The mixture was transferred into the 96-well plates seeded with Raji cells. Goat anti-mouse IgG Fc-PE antibody was used to detect the binding of LAG-3 protein to Raji cells. The mean fluorescence intensity (MFI) was evaluated by flow cytometry and analyzed by FlowJo.

The target in assay [9] is T6, cynomolgus LAG-3 on transfected cells. In words: FACS on cynomolgus LAG-3 transfected cells. On the procedure:
as §1

Numbering of substitutions follows the chain as printed. A value given as a limit tells only on which side of the number the result lay.

As usually defined, the IC50 is the concentration at which inhibition is half-maximal. The Kd is the equilibrium constant for the complex coming apart. A lower Kd goes with higher affinity. For orientation: koff means the first-order rate constant of dissociation. A word on the kon: it is the second-order rate constant of association. The EC50 is the concentration that produces a half-maximal response. A high value points to a need for much substance.

B1: W3396-R2-1 (Fc fusion)
VHH: QVQLVESGGGVVQPGGSLRLSCAASGLTLSQYTMGWFRQAPGKERELVAAIHWTSSVTDYADSVYGRFTISRDDSKNTGYLQMNSLRAEDTAVYYCAATWYYTHRGSFDYWGQGTLVTVSS
Turning to B1, the binding result in assay [1] is “no binding (tested: 66.7 nM)”. Also, the IC50 was found to be 2.9 nM in assay [2], 0.926 nM in assay [3] and 0.84 nM in [8]. In addition, the Bmax in assay [4] is 250 pM. The Kd in assay [4] is 0.81 nM; in assay [5] it was 0.162 nM; in [6], < 0.00122 nM. Moreover, the results for the koff in assay [5] and in [6] were 2.7e-05 s⁻¹ and < 1e-06 s⁻¹, respectively. The results for the kon in [5] and in assay [6] were 166000 M⁻¹ s⁻¹ and 819000 M⁻¹ s⁻¹, respectively. Besides, the EC50 in assay [7] and in [9] was 2.34 nM throughout.

B2: W3396-R2-13 (Fc fusion)
VHH: B1 VHH with Y65R
Regarding B2, in assay [1], the binding result is given as “no binding (tested: 66.7 nM)”. The IC50 in assay [2] worked out at 2.4 nM; in assay [3] it was 1.29 nM; in assay [8], 0.46 nM. In addition, the Bmax in assay [4] turned out to be 200 pM. For the same molecule, the values for the Kd in assay [4], in assay [5] and in assay [6] were 0.92 nM, 4.06 nM and < 0.000952 nM, respectively. For the same molecule, the koff was 0.000197 s⁻¹ in [5] and < 1e-06 s⁻¹ in assay [6]. Besides, the results for the kon in assay [5] and in assay [6] were 48400 M⁻¹ s⁻¹ and 1.05e+06 M⁻¹ s⁻¹, respectively. The EC50 in assay [7] and in assay [9] was 2.16 nM in each case.
